{"source": "patent US6339070B1", "about": "“Gene construct encoding a heterologous prodrug-activating enzyme and a cell targeting moiety” (Zeneca Limited, priority 1997, dated 2002)", "molecules": {"B1": {"name": "(A5B7 Fab-CPG2)2 fusion protein: chimaeric A5B7 anti-CEA Fab, heavy chain Fd linked via (G4S)3 linker to CPG2 R6, dimerised through CPG2 (antibody)", "heavy": "EVKLVESGGGLVQPGGSLRLSCATSGFTFTDYYMNWVRQPPGKALEWLGFIGNKANGYTTEYSASVKGRFTISRDKSQSILYLQMNTLRAEDSATYYCTRDRGLRFYFDYWGQGTTLTVSSASTKGPSVFPLAPCSRSTSESTAALGCLVKDYFPEPVTVSWNSGALTSGVHTFPAVLQSSGLYSLSSVVTVPSSNFGTQTYTCNVDHKPSNTKVDKTVGGGGSGGGGSGGGGSQKRDNVLFQAATDEQPAVIKTLEKLVNIETGTGDAEGIAAAGNFLEAELKNLGFTVTRSKSAGLVVGDNIVGKIKGRGGKNLLLMSHMDTVYLKGILAKAPFRVEGDKAYGPGIADDKGGNAVILHTLKLLKEYGVRDYGTITVLFNTDEEKGSFGSRDLIQEEAKLADYVLSFEPTSAGDEKLSLGTSGIAYVQVQITGKASHAGAAPELGVNALVEASDLVLRTMNIDDKAKNLRFQWTIAKAGQVSNIIPASATLNADVRYARNEDFDAAMKTLEERAQQKKLPEADVKVIVTRGRPAFNAGEGGKKLVDKAVAYYKEAGGTLGVEERTGGGTDAAYAALSGKPVIESLGLPGFGYHSDKAEYVDISAIPRRLYMAARLIMDLGAGK", "light": "QTVLSQSPAILSASPGEKVTMTCRASSSVTYIHWYQQKPGSSPKSWIYATSNLASGVPARFSGSGSGTSYSLTISRVEAEDAATYYCQHWSSKPPTFGGGTKLEIKRTVAAPSVFIFPPSDEQLKSGTASVVCLLNNFYPREAKVQWKVDNALQSGNSQESVTEQDSKDSTYSLSSTLTLSKADYEKHKVYACEVTHQGLSSPVTKSFNRGEC"}}, "key": {"[1]": {"tested_on": "LoVo, CEA bearing, tumour cells", "experiment": "In vitro cell killing assay: cell-bound fusion protein plus PGP prodrug, SRB stain", "format": "cell-based", "settings": "unbound protein washed off, PGP 1 hr, 4 days proliferation", "description": "An in vitro cell killing assay was performed in which the (A5B7-CPG2 R6)2 fusion protein was compared to a “conventional” A5B7 F(ab′)2-CPG2 conjugate formed through linking A5B7 F(ab′)2 to CPG2 with a chemical heterobifunctional reagent. […] The cells were then washed to remove unbound protein material and subsequently resuspended in medium containing a CPG2 phenol prodrug (PGP, see Example 2 below) for a period of 1 hr, after which the cells were washed, resuspended in fresh media and left to proliferate for 4 days. Finally the cells were treated with SRB stain and their numbers determined."}, "[2]": {"tested_on": "CEA negative cell lines", "experiment": "Cell based ELISA of secreted fusion protein, CEA negative cells", "settings": "increasing amounts of added fusion protein; listed as (A5B7-CPG2)2 fusion protein", "description": "Cells were seeded into 96 well plates (Becton Dickinson Biocoat™ poly-D-Lysine, 35-6461) at a density of 1×10^4 cells per well in 100 μl normal culture media and left about 40 h at 37°. 100 μl of 6% formaldehyde was diluted in DMEM and left for 1 hour at 4°. Plates were centrifuged and washed 3 times in PBS containing 0.05% Tween™ by immersion soaking (first two washes for 2 minutes and the final wash for 5 minutes).\n100 μl of doubling dilutions of cell culture supernatant containing fusion protein or chimeric A5B7 anti-CEA were added to each well as appropriate and the plates incubated overnight at 4°. The plates were washed as described above and, in the case of chimaeric fusion proteins. 100 μl of 1:1000 dilution of HRP labelled anti-human kappa antibody (Sigma A-7164) was added and incubated for 2 hours at room temperature (an anti-CPG2 detection methodology can be used in the case of murine scFv fusion proteins). The plates were washed as described above and HRP detected using OPD substrate (Sigma P-8412). Colour was allowed to develop for about 5 min, stopped with 75 μl per well of 2M H2SO4 and OD read at 490 nm.\nIn the case of the (A5B7-CPG2)2 fusion protein, material was produced in the supernatant from recombinant Colo32ODM tumour cells (CEA-ve). The fusion protein content was measured by use of the CEA ELISAs described above. […]"}, "[3]": {"tested_on": "recombinant LoVo tumour cells", "experiment": "Retention of secreted fusion protein on recombinant LoVo cells (cell based ELISA)", "settings": "CEA positive, without added anti-CEA antibody, listed as (A5B7-CPG2)2 fusion protein", "description": "(§1) The vertical axis represents optical density readings measured at 490 nm and the horizontal axis the amount of added anti-CEA antibody (IIE6) measured in ng/ml of protein. […] Firstly, the cell lines were fixed and washed to remove the existing supernatant and any unbound material after which increasing concentrations of the anti-CEA antibody (IIE6) were added to the fixed cells. The assay was developed as described in the text to determine the level of retention of any secreted material and whether further added antibody would increase the signal. […] Since the recombinant Colo320DM are CEA negative no increase in signal due to anti-CEA antibody the results for these cells would be expected. In the case of the recombinant LoVo cells the addition signal due the amounts of antibody added in this assay may be swamped except at the highest dose due to the relative strength of the original signal.\n(§2) LoVo colorectal tumour cells transfected with the (A5B7-CPG2)2 fusion protein gene have been shown both to secrete and to retain the fusion protein on their cell surface. […] The recombinant LoVo cells still gave such a strong initial signal that the added antibody made little difference to the overall signal obtained, which was considerably higher than any of the control experiments."}, "[4]": {"experiment": "Enzyme activity in plasma samples (methotrexate turnover, HPLC)", "format": "in vivo", "settings": "except when tumour enzyme activity exceeded 2.0 U/g", "description": "To act as a standard for the assay, a CPG2 enzyme standard curve was prepared in 20% normal plasma to the following concentrations: 0.2, 0.4, 0.6, 0.8 and 1.0 U/ml. Similarly all test plasma samples were also diluted to 20% normal plasma. Further dilutions of these samples e.g. neat 1/10, 1/20 and 1/50 were also made using 20% normal serum. 200 μl aliquots of each CPG2 standard and test sample dilutions were equilibrated to 30°. 2 μl of 10 mM MTX was added to each of the tubes and mixed well. […]. The reaction was stopped after exactly 10 minutes (to increase the sensitivity of the assay the incubation time can be increased to 30 minutes) by adding 500 μl ice cold methanol+0.2% TFA and assayed for product using HPLC detection as described above in Example 10."}, "[5]": {"molecular_target": "T1, human carcinoembryonic antigen (CEA) (Homo sapiens, UniProt P06731)", "T1 sequence (P06731 35-676)": "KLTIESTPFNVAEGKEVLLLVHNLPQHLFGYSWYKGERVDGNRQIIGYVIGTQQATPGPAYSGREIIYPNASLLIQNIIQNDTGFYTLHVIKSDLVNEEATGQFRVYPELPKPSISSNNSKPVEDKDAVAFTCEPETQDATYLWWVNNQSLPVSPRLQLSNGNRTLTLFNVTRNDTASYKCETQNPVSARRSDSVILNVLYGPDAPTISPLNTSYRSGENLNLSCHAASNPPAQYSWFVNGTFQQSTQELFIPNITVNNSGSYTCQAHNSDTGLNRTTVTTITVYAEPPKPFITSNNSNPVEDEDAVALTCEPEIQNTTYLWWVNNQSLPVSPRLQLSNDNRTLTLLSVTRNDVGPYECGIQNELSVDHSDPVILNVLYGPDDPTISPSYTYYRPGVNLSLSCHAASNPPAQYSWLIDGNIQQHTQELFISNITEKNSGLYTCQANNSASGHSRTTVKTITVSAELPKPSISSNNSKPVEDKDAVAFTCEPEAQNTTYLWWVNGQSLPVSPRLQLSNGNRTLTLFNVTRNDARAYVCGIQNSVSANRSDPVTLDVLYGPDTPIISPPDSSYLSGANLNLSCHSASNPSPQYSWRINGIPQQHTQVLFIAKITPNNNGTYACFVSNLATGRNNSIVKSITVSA", "experiment": "CEA-binding ELISA, anti-CPG2 reporter antibody", "settings": "COS-7 transient expression supernatant", "description": "The CEA ELISA using an anti CPG2 reporter antibody was essentially as above but instead of HRPO-labelled goat anti-human kappa antibody an 1/1000 dil. of a rabbit anti-CPG2 polyclonal sera was added, in 1% BSA in PBS-TWEEN™ and incubated at room temperature on a rocking platform for at 2 hours. The plate was washed three times with PBS-TWEEN™. A 1/2000 dilution of a goat anti-rabbit HRPO labelled antibody (Sigma A-6154) was then added and incubated at room temperature on a rocking platform for 1 hour, the plate was washed three times with PBS-TWEEN™ and once with PBS. To detect binding add 100 μl per well developing solution (one capsule of phosphate-citrate buffer—Sigma P4922—dissolved in 100 ml H2O to which is added one 30 mg tablet o-phenylenediamine dihydrochloride—Sigma P8412) and incubated for up to 15 minutes. The reaction was stopped by adding 75 μl 2M H2SO4, and absorbance read at 490 nm."}, "[6]": {"tested_on": "recombinant Colo320DM (CEA negative)", "experiment": "Retention of secreted fusion protein on recombinant Colo320DM cells (cell based ELISA)", "settings": "listed as (A5B7-CPG2)2 fusion protein", "description": "as §1, §2"}}, "note": "“Also recorded” adds a separate entry of the source."}
{"molecule": "B1", "values": [{"measurement": "cell kill with PGP prodrug compared with equivalent levels of A5B7 F(ab)2-CPG2 conjugate", "setting": "[1]", "result": "at least equivalent cell kill"}, {"measurement": "binding to CEA negative cells (OD 490 nm)", "setting": "[2]", "result": "only constant background binding levels throughout; also recorded: do not bind to CEA negative lines"}, {"measurement": "retention of expressed fusion protein on cell surface (OD 490 nm)", "setting": "[3]", "result": "had retained the expressed fusion protein; also recorded: very strong OD 490 nm reading"}, {"measurement": "enzyme activity in plasma", "setting": "[4]", "result": "No activity was seen in the plasma"}, {"measurement": "CEA binding detected with anti-CPG2 reporter antibody", "setting": "[5]", "result": "exhibited clear CEA binding"}, {"measurement": "retention of expressed fusion protein on cell surface (OD 490 nm)", "setting": "[6]", "result": "some retention of the expressed fusion protein (probably non-specific); also recorded: much weaker reading than the LoVo cells but the signal was higher than background"}]}
